The conditions of data set [1]: cited from earlier work.
Data set [2] is described as follows: precipitation of ZP1848 in solution with phosphate and NaCl, same conditions as on the column under RPC1. The data set is classed as physicochemical. The method, then:
Additionally, ZP1848 precipitates at neutral pH in solutions containing NaCl, phosphate, NaOH and high ionic strength.
Below in Table 4.1 various formulations of ZP1848 were prepared in 100 mM NaCl and 45 mM phosphate (the buffers are described in Example 1.12) at different pH and/or concentrations in order to reflect the same conditions in solution as present in the column under RPC1.
Additionally, it was shown that ZP1848 precipitates even at low concentrations at pH 7.5 (0.2 and 0.5 mg/mL).

Read-outs that look alike come from different tables or passages of the source.

Take “GLP-2 [3-33]: truncated GLP-2 [3-33] (DGSFSDEMNTILDNLAARDFINWLIQTKITD; Glucagon-like peptide 2; UniProt P01275 148-178, looked up, fragment)”: the half-life (as a rule, how long it takes for the measured level to halve) in data set [1] (in humans) was around 27 min. On to `CC[C@H](C)[C@H](NC(=O)[C@H](Cc1ccccc1)NC(=O)[C@H](CC(=O)O)NC(=O)[C@H](CCCNC(=N)N)NC(=O)[C@H](C)NC(=O)[C@H](C)NC(=O)[C@H](CC(C)C)NC(=O)[C@H](CC(N)=O)NC(=O)[C@H](CC(=O)O)NC(=O)[C@H](CC(C)C)NC(=O)[C@@H](NC(=O)[C@@H](NC(=O)[C@H](CC(N)=O)NC(=O)[C@H](CCSC)NC(=O)[C@H](CCC(=O)O)NC(=O)[C@H](CC(=O)O)NC(=O)[C@H](CO)NC(=O)[C@H](Cc1ccccc1)NC(=O)[C@H](CO)NC(=O)CNC(=O)[C@H](CC(=O)O)NC(=O)CNC(=O)[C@@H](N)Cc1c[nH]cn1)[C@@H](C)O)[C@@H](C)CC)C(=O)N[C@@H](CC(N)=O)C(=O)N[C@@H](Cc1c[nH]c2ccccc12)C(=O)N[C@@H](CC(C)C)C(=O)N[C@H](C(=O)N[C@@H](CCC(N)=O)C(=O)N[C@H](C(=O)N[C@@H](CCCCN)C(=O)N[C@H](C(=O)N[C@H](C(=O)N[C@@H](CC(=O)O)C(=O)O)[C@@H](C)O)[C@@H](C)CC)[C@@H](C)O)[C@@H](C)CC` [teduglutide, [hGly2] GLP-2], for which the half-life entry in data set [1] (Gly substitution at position 2, compared with native GLP-2) is reported as “about two”.

Take “Hy-His-Ala-Asp-Gly-Ser-Phe-Ser-Asp-Glu-Met-Asn-Thr-Ile-Leu-Asp-Asn-Leu-Ala-Ala-Arg-Asp-Phe-Ile-Asn-Trp-Leu-Ile-Gln-Thr-Lys-Ile-Thr-Asp-OH [GLP-2 [1-33]]”: in data set [1] (in humans), the half-life result was “around 7 minutes”. Take “H-HGEGTFSSELATILDALAARDFIAWLIATKITDKKKKKK-NH2 [ZP1848]”: the precipitation in solution entry in data set [2] (neutral pH, solutions containing NaCl, phosphate, NaOH and high ionic strength) is listed as “precipitates”. For the same molecule, in data set [2] (pH 7.5, 0.2 and 0.5 mg/mL), the “precipitation at low concentrations” value is recorded as “precipitates”. In data set [2] (phosphate buffer/phosphoric acid, neutral pH), the “precipitation in peptide product solution” value was “precipitates”. The “time of precipitation after sample preparation” value in data set [2] (same conditions in solution as on the column during RPC1) was “within minutes”.

(Values after patent US20260116943A1, “PROCESSES FOR SYNTHESIZING GLUCAGON-LIKE-PEPTIDE 2 (GLP-2) ANALOGUES” (Zealand Pharma A/S, priority 2021, published 2026).)
